Test results from PMC4062475, “Cloning, Expression and Characterization of UDP-N-Acetylglucosamine Enolpyruvyl Transferase (MurA) from Wolbachia Endosymbiont of Human Lymphatic Filarial Parasite Brugia malayi” (PLoS ONE, 2014).

B1: wBm-MurA (Wolbachia endosymbiont strain TRS of Brugia malayi) (protein)
chain: MHKILVRSNYKPLVGQIKINGSKNAILPIMAASLLSSSSVVLHNVPDLIDVHLMSELLEGLGAKVNFMHNKDHKANHTLETDCSNINNYAIQYETASKLRASFLMLGPMLSRFGKARTAFPGGCNIGKRPVDMHIKALEEMGAKIEIDGYNIIATVKGKLQGRKITLEKISVGATENIIMAATLAEGVTTINNAATEPEILDLIEFLKKIGADIKINNTKVIITGVKKLNGCIHKIISDRIEAGTYALAAIITNGKLVLEGINLSDIRCIANELEAIGAMVELYDGSIVISRKNGSIKSTNVATDPYPNFPSDMQPQLMSAMCIADGISVIEENIFENRFSHADELRKLGANISIKKNKAAINGIKSLSGANLYATDLRSTAALVLASLVASGETTINNSHHLWRGYEAMHEKLNSCGADISISP
notes: full-length 1278 bp ORF in pET28a (BamHI/XhoI), His6-tagged, expressed in E. coli Rosetta(DE3)pLysS, Ni-NTA purified, ~51 kDa, tag removal not mentioned

Columns and labels:
wBm-MurA = target: T1, wBm-MurA (Wolbachia endosymbiont of Brugia malayi, UniProt Q5GRP6); assay: malachite green phosphate release assay, […] min pre-incubation, […] h reaction; type: biochemical; details: 5 mM PEP, 0.6 mM UDPAG, pH 7.5, 37°C; competitive with PEP; covalent (as stated by authors)
T1 construct: full-length 1278 bp ORF in pET28a (BamHI/XhoI), His6-tagged, expressed in E. coli Rosetta(DE3)pLysS, Ni-NTA purified, ~51 kDa, tag removal not mentioned
T1 sequence (Q5GRP6 1-425): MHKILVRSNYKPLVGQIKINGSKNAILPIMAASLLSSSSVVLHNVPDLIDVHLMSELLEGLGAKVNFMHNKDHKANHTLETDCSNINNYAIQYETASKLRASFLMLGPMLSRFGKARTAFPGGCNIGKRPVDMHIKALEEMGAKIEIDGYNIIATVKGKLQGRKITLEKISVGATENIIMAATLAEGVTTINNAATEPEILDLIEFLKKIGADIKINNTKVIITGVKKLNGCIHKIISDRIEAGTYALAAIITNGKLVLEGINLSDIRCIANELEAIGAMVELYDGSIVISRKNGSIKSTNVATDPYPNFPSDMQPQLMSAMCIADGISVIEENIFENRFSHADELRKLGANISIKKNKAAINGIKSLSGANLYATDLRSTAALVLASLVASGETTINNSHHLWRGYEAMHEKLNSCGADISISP

[1] = substrate: CC(=O)N[C@H]1[C@@H](OP(=O)(O)OP(=O)(O)OC[C@H]2O[C@@H](n3ccc(=O)[nH]c3=O)[C@H](O)[C@@H]2O)O[C@H](CO)[C@@H](O)[C@@H]1O; assay: malachite green phosphate release assay, Michaelis-Menten non-linear fit; type: biochemical, Wolbachia endosymbiont of Brugia malayi; details: 1 mM PEP, 50 mM Tris-HCl pH 7.5, 10 mM KCl, 1 mM DTT, 10% glycerol, 37°C
[2] = substrate: C=C(OP(=O)(O)O)C(=O)O; assay: as above; type: biochemical, Wolbachia endosymbiont of Brugia malayi; details: 5 mM UDPAG, 50 mM Tris-HCl pH 7.5, 10 mM KCl, 1 mM DTT, 10% glycerol, 37°C

Molecule	fold decrease of activity at 50 mM (wBm-MurA)	Km [1] [µM]	Km [2] [µM]
C[C@@H]1O[C@@H]1P(=O)(O)O [fosfomycin]	~ 2 fold		
B1		31.49	9.198
